Key:
[1] = molecular target: Dylight488-labeled GluA2 amino terminal domain; test: AUC; FDS-SV, dilution series of Dylight488-GluA2 ATD, two different runs, global best-fit single component, single class of sites model (Figure 5A); dimer to monomers
[2] = molecular target: Alexa Fluor 568-labeled GluA2 amino terminal domain; test: FRET or BRET; kinetic FRET in a spectrofluorometer, 20°C, excitation 495 nm, emission 603 nm; 50 nM donor-labeled and 50 nM AF568-labeled GluA2 ATD pre-equilibrated (30 min DL488, 60 min FAM), then 1 µM unlabeled GluA2 ATD added; decay fitted with exponential functions
[3] = molecular target: Dylight488-labeled GluA2 amino terminal domain; test: AUC; fluorescence-detected sedimentation velocity (FDS-SV), dilution series of labeled protein (Figure 3); 50,000 rpm, 20°C; 20 mM Na phosphate pH 7.5, 150 mM NaCl, 1 mM EDTA, 0.1 mg/mL BSA carrier; sw isotherm fitted with a monomer-dimer model; dimer to monomers
[4] = molecular target: FAM (5,6-carboxyfluorescein)-labeled GluA2 amino terminal domain; test: AUC; FDS-SV, dilution series of FAM-GluA2 ATD at labeling ratio 1.05 (Figure 4C/D); 20°C, pH 7.5, 0.1 mg/mL BSA; monomer-dimer model; dimer to monomers
[5] = molecular target: FAM (5,6-carboxyfluorescein)-labeled GluA2 amino terminal domain; test: AUC; FDS-SV, dilution series of FAM-GluA2 ATD at labeling ratio 0.68 (Figure 4A/B), down to very low concentrations; 20°C, pH 7.5, 0.1 mg/mL BSA; monomer-dimer model; dimer to monomers
[6] = molecular target: FAM (5,6-carboxyfluorescein)-labeled GluA2 amino terminal domain; test: AUC; FDS-SV, dilution series of FAM-GluA2 ATD at labeling ratio 1.32, single-component fit excluding the two lowest concentrations and freely adjusting the s-values (Figure 5A, thin blue line); dimer to monomers
[7] = molecular target: FAM (5,6-carboxyfluorescein)-labeled GluA2 amino terminal domain; test: AUC; FDS-SV, dilution series of FAM-GluA2 ATD at labeling ratio 1.32 extended to lower concentrations (Figure 5); all fits with s-values constrained to those of Dylight488-GluA2 ATD: single-component fit, and three-component fit with populations of different affinity; dimer to monomers
[8] = molecular target: FAM (5,6-carboxyfluorescein)-labeled GluA2 amino terminal domain; test: AUC; fluorescence-detected sedimentation velocity (FDS-SV), dilution series of labeled protein (Figure 3); 50,000 rpm, 20°C; 20 mM Na phosphate pH 7.5, 150 mM NaCl, 1 mM EDTA, 0.1 mg/mL BSA carrier; sw isotherm fitted with a monomer-dimer model; dimer to monomers
[9] = molecular target: FAM (5,6-carboxyfluorescein)-labeled GluA2 amino terminal domain; test: AUC; FDS-SV, dilution series of FAM-GluA2 ATD at labeling ratio 2.26 (Figure 4E/F); 20°C, pH 7.5, 0.1 mg/mL BSA; monomer-dimer model; dimer to monomers
[10] = molecular target: GluA2 ATD ATD (Rattus norvegicus) (UniProt P19491); test: sedimentation velocity AUC (far-UV absorbance); conditions: cited from earlier work
[11] = molecular target: EGFP-GluA2 ATD fusion protein; test: AUC; FDS-SV, titration series: constant low concentration of labeled protein (1 nM for FAM-GluA2 ATD) with unlabeled GluA2 ATD at a range of concentrations (Figure S1); 20°C, pH 7.5, 0.1 mg/mL BSA; sw isotherm, monomer-dimer model; dimer to monomers
Sequence of EGFP-GluA2 ATD fusion protein (P23819 25-404): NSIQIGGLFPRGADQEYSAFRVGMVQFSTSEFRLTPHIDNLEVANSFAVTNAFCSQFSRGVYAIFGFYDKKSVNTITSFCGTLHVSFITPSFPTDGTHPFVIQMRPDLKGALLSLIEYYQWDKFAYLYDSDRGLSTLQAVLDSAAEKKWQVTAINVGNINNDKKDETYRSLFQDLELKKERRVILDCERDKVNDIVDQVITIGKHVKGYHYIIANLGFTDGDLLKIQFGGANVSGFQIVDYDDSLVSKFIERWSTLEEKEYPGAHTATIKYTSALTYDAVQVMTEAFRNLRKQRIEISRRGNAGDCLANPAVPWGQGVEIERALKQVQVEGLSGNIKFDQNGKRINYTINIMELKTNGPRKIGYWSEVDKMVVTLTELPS

[12] = molecular target: FAM (5,6-carboxyfluorescein)-labeled GluA2 amino terminal domain; test: as above
[13] = molecular target: Dylight488-labeled GluA2 amino terminal domain; test: as above

Sequence of GluA2 ATD ATD (P19491 22-400): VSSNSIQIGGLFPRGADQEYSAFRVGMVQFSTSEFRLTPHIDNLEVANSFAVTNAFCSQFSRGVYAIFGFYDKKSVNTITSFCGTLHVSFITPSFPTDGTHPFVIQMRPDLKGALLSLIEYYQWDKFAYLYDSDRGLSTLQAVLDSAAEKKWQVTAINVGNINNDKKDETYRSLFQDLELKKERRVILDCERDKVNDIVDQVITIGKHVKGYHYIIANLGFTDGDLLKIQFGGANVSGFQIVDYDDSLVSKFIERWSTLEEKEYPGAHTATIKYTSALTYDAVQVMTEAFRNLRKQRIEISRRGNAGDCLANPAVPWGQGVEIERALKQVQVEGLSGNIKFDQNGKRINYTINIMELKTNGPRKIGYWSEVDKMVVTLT

Dylight488-labeled GluA2 amino terminal domain (domain or fragment)
Kd [1]: 19.4 nM
half life of the donor/acceptor heterodimer (single-exponential decay) [2]: 2.72 min
time constant of the decay (single exponential fit, trace shown) [2]: 169 s
Kd [3]: 20.5 nM
stoichiometry N [3]: 2

FAM (5,6-carboxyfluorescein)-labeled GluA2 amino terminal domain (domain or fragment)
Kd [4]: 2.6 nM
Kd [5]: 3.1 nM
Kd [6]: 4.6 nM
KD of the high-affinity population (three-component fit) [7]: 1.8 nM
KD of the low-affinity population (three-component fit) [7]: 24000 nM
Kd [7]: 6.3 nM
life-time of the donor/acceptor heterodimer, fast component [2]: 95 s
life-time of the donor/acceptor heterodimer, slow component [2]: 723 s
time constant of the decay, fast component (double exponential fit, trace shown) [2]: 98 s
time constant of the decay, slow component (double exponential fit, trace shown) [2]: 640 s
Kd [8]: 2.3 nM
stoichiometry N [8]: 2
Kd [9]: 4.7 nM

GluA2 ATD ATD (from UniProt P19491)
Kd [10]: 9.4 nM

GluA2 amino terminal domain (GluA2 ATD), unlabeled (domain or fragment)
Kd [11]: 22 nM
Kd [12]: 9 nM
Kd [13]: 16.5 nM
